Values of other authors in patent publication US20050026224A1, “Methods and compositions for modulating G-protein coupled receptor 54” (priority 2003, published 2005).

What was measured:
[1] = system: GPR54 transfected CHO cells; details: GPR54 transfected CHO cells in vitro; Ohtaki et al. 2001
cell motility [2] = details: Hori et al. 2001
[3] = system: GPR54 transfected CHO cells; details: GPR54 transfected CHO cells in vitro; Ohtaki et al. 2001; remark: listed apart in the source
[4] = system: GPR54-transfected B16-BL6 melanomas; details: GPR54-transfected B16-BL6 melanomas in vivo; Ohtaki et al. 2001
cell motility [5] = details: Hori et al. 2001; remark: listed apart in the source

B1: Metastin: peptide ligand agonist for GPR54; protein product of the Kiss-1 gene (SEQ ID NO: 4) (protein, listed as Homo sapiens)
chain: MNSLVSWQLLLFLCATHFGEPLEKVASVGNSRPTGQQLESLGLLAPGEQSLPCTERKPAATARLSRRGTSLSPPPESSGSRQQPGLSAPHSRQIPAPQGAVLVQREKDLPNYNWNSFGLRFGKREAAPGNHGRSAGRGWGAGAGQ
invasion [1]: inhibits
cell motility in a chemotaxis assay (cell motility [2]): suppress cell motility
chemotaxis [3]: inhibits chemotaxis
pulmonary metastasis [4]: attenuates pulmonary metastasis
cell motility in a wound healing assay (cell motility [5]): suppress cell motility
